Assay results as given in patent US20220174981A1, “PROLINE TOLERANT TRIPEPTIDYL PEPTIDASES AND USES THEREOF” (DuPont Nutrition Biosciences APS, priority 2014, published 2022).

Tests used:
AAF-pNA = test: Residual activity on AAF-pNA after in vitro digestion with pepsin and pancreatin; format: biochemical
Procedure: In order to test the stability of TRI045 under the in vitro assay conditions described above (incubation in the presence of pepsin at pH3 for 45 min at 40° C. and subsequently in the presence of pancreatin for 60 min at 40° C.). The residual activity of TRI045 was subsequently assayed. The reaction mixture contained 50 μl buffer 0.1M HAC-NaAC (pH5.0), 10 μl the supernatant, and 5 μl AAF-pNA (5 mg/ml in DMSO). The reaction rate was followed at 410 nm and 30° C. every 30 seconds using a microplate reader. As a control, a commercial protease at the same concentration of 1000 ppm was used.

corn soy feed = test: TRI045 plus pepsin and pancreatin on corn soy feed, OPA and BCA assays; format: biochemical; settings: TRI045 1000 ppm, swine pepsin and pancreatin present
Procedure: The in vitro reaction system contained 140 μl 10% (w/v) corn soy feed slurry (14 mg corn soy feed), 10 μl TRI045 in 50m M MES-NaOH pH 6.0, 10 μl swine pepsin (1.14 U/μL in water). The reaction was incubated with shaking at 40° C. for 45 min and subsequently 34 μl swine pancreatin (0.4636 mg/mL in 1M Na-bicarbonate) were added and further incubated for additional 60 min. After incubation, the 96-well plate was centrifuged and supernatants were used for residual TRI045 activity assay and for OPA and BCA assays (see below).
Reference: P. M. Nielsen, D. Petersen and C. Dambmann. Improved Method for Determining Food Protein Degree of Hydrolysis. Journal of Food Science. 66 (2001) 642-646.
For OPA assay the following procedure was carried out.
To quantify the protein concentrations of each protease samples, the Pierce BCA Protein Assay Reagent Kit (Thermo Scientific, cat no. 23228) was used. The TRI045 sample was not purified before quantification. The Pierce BCA Protein Assay Kit is a detergent-compatible formulation based on bicinchoninic acid (BCA) for colorimetric detection and quantification of total proteins. This method combines the well-known reduction of Cu^2+ to Cu^1+ by protein in an alkaline medium with the highly sensitive and selective colorimetric detection of the cuprous cat ion (Cu^+1) using a unique reagent containing bicinchoninic acid. […]

H-Ala-Ala-Phe-pNA = test: Effect of pH on TRI045 activity with H-Ala-Ala-Phe-pNA; format: biochemical
Procedure: The tripeptide substrate H-Ala-Ala-Phe-pNA (AAF-pNA from BACHEM.com, L-1095.0250) for sedolisin was prepared at 2.5 mg/ml in DMSO. The reaction was prepared by mixing 8.5 μl AAF-pNA, 7 μl DMSO, 32 μl water and 50 μl buffer with pH4.14-6.57, and 0.8 μl or 1.5 ul TRI045. The reaction was started at 30° C. by the addition of the enzyme TRI045. The initial reaction rate was recorded using a microplate reader at every 0.5 min interval at 410 nm in 96 well plate.

[1] = Stability of TRI045 in the presence of pepsin; format: biochemical, Swine; settings: 500 units pepsin/mL, pH3.5, 40° C., 60 min
Procedure: Pepsin solution: Swine pepsin from Sigma (P7000, 674 Sigma units/mg, www.sigma.com) was used in this example and prepared in MilliQ water at 10000 Sigma unit/ml at 10000 Sigma unit/mL
Pre-incubation mixture contained: 2.5 μl TRI045 sample, 95 μl GAT buffer (50 mM glycine-50 mM acetic acid-50 mM Tris, pH3.5), 5 μl pepsin in milliQ water (10000 Sigma unit/ml) (final pepsin unit concentration: 500 Sigma unit/ml reaction mixture) in a half bottom area 96 well Corning MTP. For control, the pre-incubation mixture contained 5 μl water instead of 5 μl pepsin. The mixture was incubated at 40° C. for 60 min and then kept on ice. For assaying the residual activity, the assay mixture contained the pre-incubation mixture 5 μl, 0.1M acetic acid-sodium acetate (pH4.0) 85 μl, 5 μl H-Ala-Ala-Phe-pNA (2.5 mg/ml) from BACHEM.com (L-1095.0250). The 410 nm reading was followed in a microplate reader every 0.5 min at 30° C. N=2.

H-Ala-Ala-Ala-pNA = test: Exopeptidase Broad-Specificity Assay (EBSA) with H-Ala-Ala-Ala-pNA; pH and temperature profile; format: biochemical; settings: H-Ala-Ala-Ala-pNA; 20 mM Na-glycine pH 2.0-4.0 or Na-acetate pH 4.0-5.5
Procedure: 10 μL of the chromogenic peptide solution (10 mM H-Ala-Ala-Ala-pNA dissolved in dimethyl sulfoxide (DMSO); MW=387.82; Bachem, Switzerland) were added to 130 μl Na-acetate (20 mM, adjusted to pH 4.0 with acetic acid) in a microtiter plate and heated for 5 minutes at 40° C. 10 μL of appropriately diluted enzyme was added and the absorption was measured in a MTP reader (Versa max, Molecular Devices, Denmark) at 405 nm. One katal of proteolytic activity was defined as the amount of enzyme required to release 1 mole of p-nitroaniline per second.
The chromogenic peptide H-Ala-Ala-Ala-pNA (MW=387.82; Bachem, Switzerland) was used to determine the activity of proline tolerant tripeptidyl peptidase in the samples produced as described above. The assay was conducted as follows, 10 μL of the chromogenic peptide solution (10 mM dissolved in dimethyl sulfoxide; DMSO) were added to 130 μl Na-acetate (20 mM, adjusted to pH 4.0 with acetic acid) in a microtiter plate and heated for 5 minutes at 40° C. 10 μL of appropriately diluted enzyme was added and the absorption was measured in an MTP reader (Versa max, Molecular Devices, Denmark) at 405 nm. One katal of proteolytic activity was defined as the amount of enzyme required to release 1 mole of p-nitroaniline per second.
The proline tolerant tripeptidyl peptidase assay described with H-Ala-Ala-Ala-pNA substrate above with modification of using the buffers 20 mM Na-glycine (pH 2.0, 2.5, 3.0, 3.5 and 4.0) or 20 mM Na-acetate buffer (pH 4.0, 4.5 and 5.5) was used to determine the pH profile of proline tolerant tripeptidyl peptidase TRI083 (FIG. 2) and TRI045 (FIG. 24)..
The proline tolerant tripeptidyl peptidase assay described above was used at temperatures 25, 50, 55, 60, 65, 70, 75, 80 and 85° C.
For proline tolerant tripeptidyl peptidase the chromogenic peptide H-Ala-Ala-Ala-pNA was used. The assay was conducted as follows, 27.5 μL of appropriately diluted enzyme was added to 200 μl McIlvaine buffer (20 mM, pH 4.0). After incubation at 50° C. for 5 min, 12.5 μL of the chromogenic peptide solution (5 mg/mL dissolved in dimethyl sulfoxide (DMSO); Sigma-Aldrich, Denmark) were added to the reaction mixture. The reaction was terminated by adding 50 μL of 0.5 M trichloroacetic acid (TCA; Sigma-Aldrich, Denmark). After centrifugation (15,000×g, 5 min), 240 μL of the solution were transferred to a microtiter plate (MTP; Kisker-biotech, Germany) and the absorption was measured in an MTP reader (Molecular Devices, Denmark) at 405 nm. One katal of proteolytic activity was defined as the amount of enzyme required to release 1 mol of p-nitroaniline per second.

B1: TRI045: tripeptidyl peptidase having pre-pro sequence SEQ ID No. 98 and mature protein SEQ ID No. 99 (protein, listed as Arthroderma benhamiae)
chain: CRSLVTTACLRELYGLGDRVTQARDDNRIGVSGFLEEYAQYRDLELFLSRFEPSAKGFNFSEGLIAGGKNTQGGPGSSTEANLDMQYVVGLSHKAKVTYYSTAGRGPLIPDLSQPSQASNNNEPYLEQLRYLVKLPKNQLPSVLTTSYGDTEQSLPASYTKATCDLFAQLGTMGVSVIFSSGDTGPGSSCQTNDGKNATRFNPIYPASCPFVTSIGGTVGTGPERAVSFSSGGFSDRFPRPQYQDNAVKDYLKILGNQWSGLFDPNGRAFPDIAAQGSNYAVYDKGRMTGVSGTSASAPAMAAIIAQLNDFRLAKGSPVLGFLNPWIYSKGFSGFTDIVDGGSRGCTGYDIYSGLKAKKVPYASWNATKGWDPVTGFGTPNFQALTKVLP
Q: Which “time stable to pepsin and pancreatin” value (AAF-pNA; 40° C.) does the source give for B1 here?
A: at least 100 minutes

Q: What about the reaction rate (AAF-pNA; 1000 ppm, after pepsin 45 min and pancreatin 60 min at 40° C., control 4.3 mOD/min) of the same molecule?
A: 19.3 mOD/min

Q: And the “stability to pepsin and pancreatin in the presence of corn soy feed” value (AAF-pNA; 105 min at 40° C., pH range of 3 to 7)?
A: stable to pepsin and pancreatin

Q: What about the “residual activity on AAF-pNA relative to the commercial protease” value (AAF-pNA; after subtraction of the control (4.3 mOD/min)) of the same molecule?
A: 2.2 times

Q: What about the “increase of release of free amino groups from corn soy feed (OPA value)” value (corn soy feed) of the same molecule?
A: 9%

Q: What about the “increase of protein solubility” value (corn soy feed; BCA) of the same molecule?
A: 5%

Q: What about the “activity at around pH4 and pH6.5” value (H-Ala-Ala-Phe-pNA; AAF-pNA, 30° C.) of the same molecule?
A: around 50%

Q: And the “Relative activity with pH 5.01 as 100%” value (H-Ala-Ala-Phe-pNA; pH 4.1, 0.1M HAC-NaAC)?
A: 59.4%

Q: And the “Relative activity with pH 5.01 as 100%” value (H-Ala-Ala-Phe-pNA; pH 4.6, 0.1M HAC-NaAC)?
A: 81.7%

Q: What about the “Relative activity with pH 5.01 as 100%” value (H-Ala-Ala-Phe-pNA; pH 5.0, 0.1M HAC-NaAC) of the same molecule?
A: 100.0%

Q: And the “Relative activity with pH 5.01 as 100%” value (H-Ala-Ala-Phe-pNA; pH 5.6, 0.1M HAC-NaAC)?
A: 80.7%

Q: And the “Relative activity with pH 5.01 as 100%” value (H-Ala-Ala-Phe-pNA; pH 6.0, 0.1M Mes-NaOH)?
A: 72.2%

Q: And the “Relative activity with pH 5.01 as 100%” value (H-Ala-Ala-Phe-pNA; pH 6.6, 0.1M Mes-NaOH)?
A: 48.5%

Q: And the residual activity [1]?
A: over 90%

Q: What about the “Optimum pH” value (H-Ala-Ala-Ala-pNA) of the same molecule?
A: 4.0
